Target: Vpr-Gal4AD chimeric protein (UniProt P12520)

Substance | beta-galactosidase activity, liquid culture of double transformant yeast, relative to wild type UDG-Gal4BD
UDG-Gal4BD chimeric protein UDG F225G | exhibited only 7% of the ability to interact with Vpr-Gal4AD chimeric protein
UDG-Gal4BD chimeric protein UDG W222G | exhibited less than half (43%) of the ability to interact with Vpr-Gal4AD chimeric protein
